Test results from US20060014264, “Cre/lox system with lox sites having an extended spacer region” (Stowers Institute for Medical Research, published 2006).
Substitutions are numbered along the chain they refer to.

T1: Cre 280::CGRTG (in E. coli) (Enterobacteria phage P1, UniProt P06956 SEQ:1-348)
T1 chain: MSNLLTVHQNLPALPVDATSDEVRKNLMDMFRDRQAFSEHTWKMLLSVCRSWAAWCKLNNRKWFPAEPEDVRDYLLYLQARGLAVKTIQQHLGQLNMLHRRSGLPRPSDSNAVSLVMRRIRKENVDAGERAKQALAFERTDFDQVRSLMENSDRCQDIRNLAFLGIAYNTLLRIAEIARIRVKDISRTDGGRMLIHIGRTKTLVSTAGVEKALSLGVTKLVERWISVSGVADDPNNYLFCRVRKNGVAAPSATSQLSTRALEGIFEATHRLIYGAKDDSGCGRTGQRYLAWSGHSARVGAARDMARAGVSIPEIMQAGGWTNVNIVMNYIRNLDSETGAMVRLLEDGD

T2: Cre 18::CGRNA+P15L (in E. coli) (Enterobacteria phage P1, UniProt P06956 SEQ:1-348)
T2 chain: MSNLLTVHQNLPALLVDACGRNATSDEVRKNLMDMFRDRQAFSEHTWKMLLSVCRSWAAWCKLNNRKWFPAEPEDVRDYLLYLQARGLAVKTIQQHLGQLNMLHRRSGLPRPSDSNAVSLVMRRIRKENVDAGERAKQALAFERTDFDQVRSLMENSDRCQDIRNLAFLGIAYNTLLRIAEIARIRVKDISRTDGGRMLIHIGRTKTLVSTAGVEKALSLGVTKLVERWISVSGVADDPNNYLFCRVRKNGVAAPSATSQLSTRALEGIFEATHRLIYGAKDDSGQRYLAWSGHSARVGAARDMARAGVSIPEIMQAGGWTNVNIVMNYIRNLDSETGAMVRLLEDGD

T3: Cre 286::LRPHW (in E. coli) (Enterobacteria phage P1, UniProt P06956 SEQ:1-348)
T3 chain: T1 chain with C281Q, G282R, R283Y, T284L, G285A, Q286W, R287L, Y288R, L289P, A290H

T4: Cre 24::CGRIR (in E. coli) (Enterobacteria phage P1, UniProt P06956 SEQ:1-348)
T4 chain: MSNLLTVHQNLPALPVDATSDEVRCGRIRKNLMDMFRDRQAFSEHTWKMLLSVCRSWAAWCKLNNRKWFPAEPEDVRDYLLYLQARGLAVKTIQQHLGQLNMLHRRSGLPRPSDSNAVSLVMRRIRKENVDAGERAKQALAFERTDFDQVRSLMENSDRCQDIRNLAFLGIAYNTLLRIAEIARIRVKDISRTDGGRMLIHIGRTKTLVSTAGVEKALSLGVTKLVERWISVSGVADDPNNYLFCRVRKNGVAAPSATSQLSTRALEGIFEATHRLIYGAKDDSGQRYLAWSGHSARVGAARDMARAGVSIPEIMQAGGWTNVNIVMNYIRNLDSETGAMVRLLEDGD

T5: Cre 18::CGRNA+P15L (Enterobacteria phage P1, UniProt P06956 SEQ:1-348)
T5 chain: T2 chain

T6: Cre 24::CGRIR (Enterobacteria phage P1, UniProt P06956 SEQ:1-348)
T6 chain: T4 chain

T7: Cre 286::LRPHW (Enterobacteria phage P1, UniProt P06956 SEQ:1-348)
T7 chain: T1 chain with C281Q, G282R, R283Y, T284L, G285A, Q286W, R287L, Y288R, L289P, A290H

B1: lox+3 site (in plasmid or PCR fragment) (dsDNA)
DNA 1: ACAACTTCGTATAATGATTTATGCTATACGAAGTTAT
DNA 2: ATAACTTCGTATAGCATAAATCATTATACGAAGTTGT
B2: lox+3 cleavage oligonucleotide KC341 duplex (dsDNA)
DNA 1: TCGAGTGCACAACTTCGTATAATGATTTATGCTATACGAAGTTATCATTCGCTAG
DNA 2: CTAGCGAATGATAACTTCGTATAGCATAAATCATTATACGAAGTTGTGCACTCGA

Experiments:
Cre wt (in E. coli) = Cre wt (in E. coli) (Enterobacteria phage P1, UniProt P06956 SEQ:1-343); experiment: cell_activity; background 0.001%; conditions: chain copies: 2
[1] = molecular target: T1, Cre 280::CGRTG (in E. coli); experiment: cell_activity; background 0.001%; conditions: chain copies: 2
[2] = molecular target: T2, Cre 18::CGRNA+P15L (in E. coli); experiment: cell_activity; background 0.001%; conditions: chain copies: 2
[3] = molecular target: T3, Cre 286::LRPHW (in E. coli); experiment: cell_activity; background 0.001%; conditions: chain copies: 2
[4] = molecular target: T4, Cre 24::CGRIR (in E. coli); experiment: cell_activity; background 0.001%; conditions: chain copies: 2
Cre wt = Cre wt (Enterobacteria phage P1, UniProt P06956 SEQ:1-343); experiment: cleavage_in_vitro; reference for mutants; cleavage strongly reduced on intact lox+3; 30 nM Cre, 10 mM MgCl2, 37 C; conditions: chain copies: 2 per lox site (stated); label: 5'-32P
Description: (§1) DNA cleavage reactions were in a 12 μl reaction volume containing Cre reaction buffer, 83 ng/μl BSA, 8.3 ng/μl calf thymus DNA, […] appropriate ³²P-labeled DNA substrate and 30 nM of Cre. Reactions were incubated at 37° C. for 1 hour, terminated by addition of 12 μl of 2×SDS-gels loading buffer (x: 40 mM Tris-HCl pH 6.8, 50 mM DTT, 1.0% SDS, 7.5% Glycerol, 0.01% Bromphenol Blue), heated at 95° C. for 5 minutes and then analyzed by 15% SDS-PAGE. Gels were quantified using a PhosphorImager (Molecular Dynamics, Sunnyvale, Calif.) scanner.
(§2) The ability of each mutant to catalyze cleavage at the lox⁺³ site on an unnicked 54 bp substrate was examined. Cleavage by Cre is easily detected as a slowly moving band on a polyacrylamide gel resulting from the formation of a protein-DNA complex in which the catalytic tyrosine of Cre is covalently linked to a 3′ phosphate of the labeled DNA substrate at the site of cleavage (FIG. 3).

Cre 18::CGRNA+P15L = molecular target: T5, Cre 18::CGRNA+P15L; experiment: cleavage_in_vitro; covalent complex, top strand; 30 nM Cre; conditions: chain copies: 2 per lox site (stated); label: 5'-32P
Description: as §1, §2

Cre 24::CGRIR = molecular target: T6, Cre 24::CGRIR; experiment: as above; conditions: chain copies: 2 per lox site (stated); label: 5'-32P
Description: as §1, §2

Cre 286::LRPHW = molecular target: T7, Cre 286::LRPHW; experiment: as above; conditions: chain copies: 2 per lox site (stated); label: 5'-32P
Description: as §1, §2

Binder	activity (Cre wt (in E. coli))	activity [1]	activity [2]	activity [3]	activity [4]	covalent cleavage complex formation (Cre wt)	cleavage (covalent Cre-DNA complex) (Cre 18::CGRNA+P15L)	cleavage (covalent Cre-DNA complex) (Cre 24::CGRIR)	cleavage (covalent Cre-DNA complex) (Cre 286::LRPHW)
B1	0.1 % recombination (KnR)	61 % recombination (KnR)	56 % recombination (KnR)	92 % recombination (KnR)	94 % recombination (KnR)	–	–	–	–
B2	–	–	–	–	–	1 fold vs wt Cre	20 fold vs wt Cre	4 fold vs wt Cre	4 fold vs wt Cre
